“And” between values parts separate entries of the source, which are not always exact repeats. Equal values may be shown once.
Details: Mus musculus; pH 7.5; Thermal; CD; KH2PO4-K2HPO4 10 mM; NaCl 0.0 mM; reversible: yes; whole UniProt chain shown

B1: Signal peptide peptidase wild type, Q9D8V0 (protein)
chain: MDSAVSDPHNGSAEAGTPANGTTRPPSTPEGIALAYGSLLLMALLPIFFGALRSVRCARGKSSSDMPETITSRDAARFPIIASCTLLGLYLFFKIFSQEYINLLLSMYFFVLGILALSHTISPFMNKFFPANFPNRQYQLLFTQGSGENKEEIINYEFDTKDLVCLGLSSVVGVWYLLRKHWIANNLFGLAFSLNGVELLHLNNVSTGCILLGGLFIYDIFWVFGTNVMVTVAKSFEAPIKLVFPQDLLEKGLEADNFAMLGLGDIVIPGIFIALLLRFDISLKKNTHTYFYTSFAAYIFGLGLTIFIMHIFKHAQPALLYLVPACIGFPVLVALAKGEVAEMFSYEESNPKDPAAETESKEESTEASASKRLEKKEK
For B1, the Tm was 43.7 °C and 41 °C.
